From PMC8336837, “Structure of the human C9orf72-SMCR8 complex reveals a multivalent protein interaction architecture” (PLoS Biology, 2021)

T1: Strep-SMCR8ΔCC (SMCR8 mutant lacking its coiled-coil region) (human, UniProt Q8TEV9 1-937, missing residues 181 to 250)
T1 construct: SMCR8, human, lacking the coiled-coil region (missing residues 181 to 250); Cloned into pOPINE-3C-eGFP; source: HEK293T, transfected together with C9orf72, in lysate; not shown: twin-strep, N-terminal, kept
T1 sequence (looked up): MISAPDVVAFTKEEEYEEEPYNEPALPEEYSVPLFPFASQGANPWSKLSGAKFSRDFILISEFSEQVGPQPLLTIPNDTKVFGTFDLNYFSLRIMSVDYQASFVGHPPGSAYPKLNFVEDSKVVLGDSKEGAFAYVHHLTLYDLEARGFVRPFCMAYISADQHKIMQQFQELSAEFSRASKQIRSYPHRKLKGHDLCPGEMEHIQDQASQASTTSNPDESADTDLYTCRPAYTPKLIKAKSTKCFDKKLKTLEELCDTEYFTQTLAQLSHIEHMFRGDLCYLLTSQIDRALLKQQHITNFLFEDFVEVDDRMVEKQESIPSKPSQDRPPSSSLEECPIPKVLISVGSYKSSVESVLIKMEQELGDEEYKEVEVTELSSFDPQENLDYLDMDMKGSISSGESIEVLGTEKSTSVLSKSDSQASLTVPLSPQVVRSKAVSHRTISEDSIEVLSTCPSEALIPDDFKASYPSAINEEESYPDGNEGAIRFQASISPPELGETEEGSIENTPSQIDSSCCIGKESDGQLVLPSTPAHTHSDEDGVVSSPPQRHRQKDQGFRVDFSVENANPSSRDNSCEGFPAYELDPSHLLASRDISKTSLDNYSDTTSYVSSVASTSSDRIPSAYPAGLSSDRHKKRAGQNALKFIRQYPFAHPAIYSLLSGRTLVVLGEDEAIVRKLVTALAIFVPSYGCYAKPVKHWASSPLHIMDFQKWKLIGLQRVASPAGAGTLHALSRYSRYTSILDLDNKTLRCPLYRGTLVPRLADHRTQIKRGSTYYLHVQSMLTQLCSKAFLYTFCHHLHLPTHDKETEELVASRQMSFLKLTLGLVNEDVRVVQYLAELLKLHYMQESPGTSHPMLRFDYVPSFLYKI

T2: C9orf72 (full-length) (human, UniProt Q96LT7 1-481)
T2 construct: C9orf72, human, the longer isoform (481 AA); open reading frame commercially synthesized with codon optimization; also called Fl-C9orf72; C9orf72 Fl; source: Sf-9 insect cells, co-expressed with SMCR8 or SMCR8N-C, purified (Strep-Tactin, size-exclusion chromatography)
T2 sequence (looked up): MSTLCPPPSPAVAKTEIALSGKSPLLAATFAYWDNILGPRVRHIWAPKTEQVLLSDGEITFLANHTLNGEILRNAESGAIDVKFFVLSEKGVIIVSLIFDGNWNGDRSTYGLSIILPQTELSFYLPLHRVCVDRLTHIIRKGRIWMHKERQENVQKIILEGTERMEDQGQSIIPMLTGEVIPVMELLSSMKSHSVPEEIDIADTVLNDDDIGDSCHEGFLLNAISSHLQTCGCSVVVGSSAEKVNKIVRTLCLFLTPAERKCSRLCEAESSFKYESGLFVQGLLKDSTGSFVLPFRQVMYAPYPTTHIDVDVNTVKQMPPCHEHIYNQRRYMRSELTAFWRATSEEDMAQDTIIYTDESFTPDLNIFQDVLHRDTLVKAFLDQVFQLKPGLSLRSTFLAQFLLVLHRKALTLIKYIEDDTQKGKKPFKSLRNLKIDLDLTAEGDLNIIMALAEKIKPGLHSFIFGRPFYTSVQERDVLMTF


Legend:
[1] = target: T1, Strep-SMCR8ΔCC (SMCR8 mutant lacking …); test: affinity purification with mass spectrometry; Strep-SMCR8 (WT or ΔCC) and C9orf72 transfected into HEK293T; cells fed or starved 90 minutes (amino acid- and glucose-free media) before lysis; magnetic Strep-Tactin beads; label-free quantification (LFQ), triplicates; details: partners not purified
C9orf72 (full-length) = target: T2, C9orf72 (full-length); test: SEC; limited proteolysis: full-length C9orf72-SMCR8-WDR41 complex (0.93 mg) with trypsin (4.6 ug) 20 minutes on ice, then size-exclusion chromatography; bands of the peak fraction identified by tandem mass spectrometry; details: both partners purified

fold increase of WDR41 (LFQ) against SMCR8 WT fed, fed cells [1] [fold] | fold increase of WDR41 (LFQ) against SMCR8 WT fed, starved cells [1] [fold] | binding result (C9orf72 (full-length)) | Binder
~4.5 | ~5.5 |  | WDR41 (in HEK293T cells) (natural protein, human (endogenous in HEK293T), UniProt Q9HAD4 1-459, looked up, WDR41, found by mass spectrometry in Strep-Tactin purifications from HEK293T cells (only SMCR8 and C9orf72 plasmids were transfected); source: endogenous, HEK293T lysate) MLRWLIGGGREPQGLAEKSPLQTIGEEQTQNPYTELLVLKAHHDIVRFLVQLDDYRFASAGDDGIVVVWNAQTGEKLLELNGHTQKITAIITFPSLESCEEKNQLILTASADRTVIVWDGDTTRQVQRISCFQSTVKCLTVLQRLDVWLSGGNDLCVWNRKLDLLCKTSHLSDTGISALVEIPKNCVVAAVGKELIIFRLVAPTEGSLEWDILEVKRLLDHQDNILSLINVNDLSFVTGSHVGELIIWDALDWTMQAYERNFWDPSPQLDTQQEIKLCQKSNDISIHHFTCDEENVFAAVGRGLYVYSLQMKRVIACQKTAHDSNVLHVARLPNRQLISCSEDGSVRIWELREKQQLAAEPVPTGFFNMWGFGRVSKQASQPVKKQQENATSCSLELIGDLIGHSSSVEMFLYFEDHGLVTCSADHLIILWKNGERESGLRSLRLFQKLEENGDLYLAV
 |  | binds | N-terminal domain of SMCR8 (SMCR8N), tryptic fragment (domain or fragment, human, UniProt Q8TEV9 1-439, looked up, SMCR8, human, residues 1 to 439, product of limited proteolysis identified by mass spectrometry; source: Sf-9 insect cells; purified full-length C9orf72-SMCR8-WDR41 complex cut with trypsin) MISAPDVVAFTKEEEYEEEPYNEPALPEEYSVPLFPFASQGANPWSKLSGAKFSRDFILISEFSEQVGPQPLLTIPNDTKVFGTFDLNYFSLRIMSVDYQASFVGHPPGSAYPKLNFVEDSKVVLGDSKEGAFAYVHHLTLYDLEARGFVRPFCMAYISADQHKIMQQFQELSAEFSRASECLKTGNRKAFAGELEKKLKDLDYTRTVLHTETEIQKKANDKGFYSSQAIEKANELASVEKSIIEHQDLLKQIRSYPHRKLKGHDLCPGEMEHIQDQASQASTTSNPDESADTDLYTCRPAYTPKLIKAKSTKCFDKKLKTLEELCDTEYFTQTLAQLSHIEHMFRGDLCYLLTSQIDRALLKQQHITNFLFEDFVEVDDRMVEKQESIPSKPSQDRPPSSSLEECPIPKVLISVGSYKSSVESVLIKMEQELGDEEYK
